This test addresses CD25 (IL-2Rα) (UniProt P01589). Briefly: cell-based or functional assay.
Sequence of UniProt P01589 (P01589 22-272 limits assumed): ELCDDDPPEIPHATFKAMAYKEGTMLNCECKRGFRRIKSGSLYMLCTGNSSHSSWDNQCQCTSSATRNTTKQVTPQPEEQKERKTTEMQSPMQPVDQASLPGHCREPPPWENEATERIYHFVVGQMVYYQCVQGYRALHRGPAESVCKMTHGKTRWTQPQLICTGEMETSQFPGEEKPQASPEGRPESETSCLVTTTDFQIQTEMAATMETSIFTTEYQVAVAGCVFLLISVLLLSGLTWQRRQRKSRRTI

B1: IC-T6-IC-IL2v (IL2v immunoconjugate) (protein, part only; not given: isotype control Fab and Fc chains, not shown: a dimerising Fc or GST)
chain, part: APASSSTKKTQLQLEHLLLDLQMILNGINNYKNPKLTRMLTAKFAMPKKATELKHLQCLEEELKPLEEVLNGAQSKNFHLRPRDLISNINVIVLELKGSETTFMCEYADETATIVEFLNRWITFAQSIISTLT
B1 showed a percent of pSTAT5+ cells among Treg (flow cytometry on PBMC, 20 min) of 3 log.

Source of the values: patent US20240392008A1.
